For one data set, the system named is IgE (Homo sapiens). The experiment in a line: filter. The conditions noted are these: 2'-OMe A,G,U; 2'-deoxy C; pool; DPBS with Ca2+ and Mg2+.
Data set [1] concerns the target von Willebrand factor A1 domain (Homo sapiens) (UniProt P04275). The data set can be described thus: filter. As to conditions: 2'-OMe A,G,U; 2'-deoxy C; pool; DPBS with Ca2+ and Mg2+.
Data set [2] deals with von Willebrand factor (vWF) (Homo sapiens) (UniProt P04275). The data set can be described thus: filter. As to conditions: 2'-OMe A,G,U; 2'-deoxy C; pool; DPBS with Ca2+ and Mg2+.
The target in data set [3] is T7 RNA polymerase Y639L/H784A/K378R (Bacteriophage T7) (UniProt P00573). The conditions noted are these: MNA yield, 8 mM MgCl2, 2.5 mM MnCl2.
Data set [4] addresses T7 RNA polymerase P266L/Y639L/H784A/K378R (Bacteriophage T7) (UniProt P00573). As to conditions: 11 ug/ml enzyme (65 at 2.6, 13 at 0.66, 8.3 at 0.16 ug/ml); 8 mM MgCl2, 2.5 mM MnCl2.
The target of data set [5] is T7 RNA polymerase Y639L/H784A/K378R (Bacteriophage T7) (UniProt P00573). The conditions noted are these: 2.1 ug/ml enzyme; 2'-OMe NTPs, 8 mM MgCl2, 2.5 mM MnCl2, 37 C.

Read-outs that look alike come from different tables or passages of the source.

As a reminder, the Kd is the equilibrium constant for the complex coming apart.

As for “GGGAGAATTCCGACCACAAGNNNNNNNNNNNNNNNNNNNNNNNNNNNNNNNNNNNNNNNNCATATGTGCGTCTACATGGATCCTCA [ARC4218 dCmD round 6 pool, IgE selection]”, the dissociation constant (Kd) in the data set on IgE (Homo sapiens) amounted to 8 nM. This lies in the single-digit nanomolar range.

Take “GGGAGAATTCCGACCACAAGNNNNNNNNNNNNNNNNNNNNNNNNNNNNNNNNNNNNNNNNCATATGTGCGTCTACATGGATCCTCA [ARC4218 dCmD round 6 pool, vWF selection]”: the Kd amounted to 4 nM in data set [1] and 2 nM in data set [2].

With “GGGAGAATTCCGACCAGAAGCTTNNNNNNNNNNNNNNNNNNNNNNNNNNNNNNNNNNNNNNNNCATATGTGCGTCTACATGGATCCTCA (double strand)”, the activity in data set [3] (dCmD yield 365 pmol) stood at 473 pmol.

In data set [3] (dCmD yield 327 pmol), “GGGAGAGACAAGCTTGGGTCNNNNNNNNNNNNNNNNNNNNNNNNNNNNNNNNNNNNNNNNAGAAGAGAAAGAGAAGTTAATTAAGGATCCTCAG (double strand)” registered an activity of 404 pmol.

Regarding “TAATACGACTCACTATAGGGGAGTACAATAACGTTCTCGNNNNNNNNNNNNNNNNNNNNNNNNNNNNNNGGATCGTTACGACTAGCATCGATG (double strand) [ARC2118 transcription template]”, the values for the activity (normalized MNA transcript yield) in data set [4] and in data set [5] were 130 and 100, respectively.

The values are drawn from patent US20100120024.
